The assay concerns the target full length human TDP-43-turboGFP, in vitro translated (human, UniProt Q13148 1-414). Description: cell-based or functional assay.

Chain of full length human TDP-43-turboGFP, in vitro translated (Q13148 whole entry): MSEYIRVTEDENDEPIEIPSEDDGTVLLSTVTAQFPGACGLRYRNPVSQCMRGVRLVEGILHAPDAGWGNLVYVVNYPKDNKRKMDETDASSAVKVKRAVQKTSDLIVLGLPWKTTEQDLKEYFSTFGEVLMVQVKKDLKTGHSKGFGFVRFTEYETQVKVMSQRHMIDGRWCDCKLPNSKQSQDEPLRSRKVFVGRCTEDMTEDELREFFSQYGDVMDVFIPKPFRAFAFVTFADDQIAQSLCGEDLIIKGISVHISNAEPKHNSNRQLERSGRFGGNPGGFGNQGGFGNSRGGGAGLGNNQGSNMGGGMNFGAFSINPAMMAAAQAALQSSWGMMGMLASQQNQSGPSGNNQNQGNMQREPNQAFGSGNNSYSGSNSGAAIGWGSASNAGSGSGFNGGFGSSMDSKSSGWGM

B1: clusterin (CLU) purified from human plasma (natural protein)
chain 1: DQTVSDNELQEMSNQGSKYVNKEIQNAVNGVKQIKTLIEKTNEERKTLLSNLEEAKKKKEDALNETRESETKLKELPGVCNETMMALWEECKPCLKQTCMKFYARVCRSGSGLVGRQLEEFLNQSSPFYFWMNGDRIDSLLENDRQQTHMLDVMQDHFSRASSIIDELFQDRFFTREPQDTYHYLPFSLPHRRPHFFFPKSRIVR
chain 2: SLMPFSPYEPLNFHAMFQPFLEMIHEAQQAMDIHFHSPAFQHPPTEFIREGDDDRTVCREIRHNSTGCLRMKDQCDKCREILSVDCSTNNPSQAKLRRELDESLQVAERLTRKYNELLKSYQWKMLNTSSLLEQLNEQFNWVSRLANLTQGEDQYYLRVTTVASHTSDSDVPSGVTEVVVKLFDSDPITVTVPVEVSRKNPKFMETVAEKALQEYRKKHREE
Consider B1, for which the “soluble TDP-43-tGFP left after 4 h at 37 °C with 43 nM CLU, against 43 nM BSA (Western blot of the supernatant, densitometry)” value worked out at 8 fold.

The values above are taken from publication PMC5678579, “Clusterin protects neurons against intracellular proteotoxicity” (Acta Neuropathologica Communications, 2017).
